{
  "source": "patent US20240425583A1",
  "about": "“METHODS AND COMPOSITIONS RELATED TO MCL-1 AND BIM HETERODIMER ANTIBODIES” (priority 2021, published 2024)",
  "molecules": {"B1": {"name": "HSMCB (SEQ ID NO: 15, SEQ ID NO: 16): MCL-1/BIM heterodimer antibody, CDRs SEQ ID NO: 9-14, variable heavy chain SEQ ID NO: 15, variable light chain SEQ ID NO: 16 (antibody, V domains shown)", "VH": "MDWIWIMLHLLAAATGLQSQVHLQQSGSELRSPGSSVKLSCKDFDSEVFPIAYMSWVRQKPGHGFEWIGDILPSIGRTIYGEKFEDKATLDADTVSNTAYLELNSLTSEDSAIYYCARQDTYYAMDYWGQGTSVTVSS", "VL": "MHFQVQIFSFLLISASVIMSRGQIVLTQSPAIMSASPGEKVTITCSASSSVSYMHWVQQKPGTSPKLWIYSTSNLASGVPARFRGSGSGTSYSLTISRMEAEDAATYYCQQRSSYPYTFGGGTKLEIK"}, "B2": {"name": "HSMCB (SEQ ID NO: 7, SEQ ID NO: 8): MCL-1/BIM heterodimer antibody, CDRs SEQ ID NO: 1-6, variable heavy chain SEQ ID NO: 7, variable light chain SEQ ID NO: 8 (antibody, V domains shown)", "VH": "MNFGLSLIFLVLVLKGVQCEVQLVESGGDLVKPGGSLKLSCAVSGFTFSSYAMSWVRQTPAKRLEWVATISSGGFATYYPDTVKGRFTISRDNAKNTLYLQMSSLRSEDTAMYYCARHGGGSYGWFAYWGQGTLVTVSE", "VL": "MLSLAPLLSLLLLCVSDSRAETTVTQSPASLSVATGEKVTIRCITSTDIDDDMNWYQQKPGEPPKLLISEGNTLRPGVPSRFSSSGYGTDFVFTIENTLSEDFADYYCLQSDNMPYTFGGGTKLEIK"}},
  "key": {"[1]": {"system": "HCC70 triple negative breast cancer cells", "test": "IHC staining of FFPE HCC70 cells, wild-type vs BIM siRNA", "assay_type": "cell-based, human", "settings": "for HSMCB IHC signal intensity: BIM-siRNA transfected HCC70 cells vs wild-type, FIG. 3", "source_text": "(§1) The MCL-1/BIM heterodimer antibody (HSMCB) requires BIM to bind in situ. BIM siRNA was used on both MCF-7 and HCC70 cells (far left, and right middle columns, respectively), and the cells were then formalin-fixed and paraffin embedded into a tissue microarray (TMA) block, sectioned and added to glass slides, and stained with HSMCB. IHC images of the wild-type (WT) staining for both MCF-7 and HCC70 cells are shown in the middle-left, and far right columns, respectively. […] The images across the top panel in FIG. 3 are of an HSMCB antibody having CDRs selected from SEQ ID NO: 9, SEQ ID NO: 10, SEQ ID NO: 11, SEQ ID NO: 12, SEQ ID NO: 13, SEQ ID NO: 14, and having a variable heavy chain selected from SEQ ID NO: 15, and a variable light chain selected from SEQ ID NO: 16; and the images across the bottom panel in FIG. 3 are of an HSMCB antibody having CDRs selected from SEQ ID NO: 1, SEQ ID NO: 2, SEQ ID NO: 3, SEQ ID NO: 4, SEQ ID NO: 5, SEQ ID NO: 6, and having a variable heavy chain selected from SEQ ID NO: 7, and a variable light chain selected from SEQ ID NO: 8.\nIn the far left panel. IHC images of the HSMCB antibody are shown for both WT HCC70 cells, and Bim-siRNA transfected HCC70 cells. In the middle panel. IHC images of the HSBXB antibody are shown for both WT HCC70 cells, and Bim-siRNA transfected HCC70 cells. In the far right panel. IHC images are shown of HCC70 cells without application of HSMCB or HSBXB. […] The images in the left column of FIG. 4 are of an HSMCB antibody having CDRs selected from SEQ ID NO: 9, SEQ ID NO: 10, SEQ ID NO: 11, SEQ ID NO: 12, SEQ ID NO: 13, SEQ ID NO: 14, and having a variable heavy chain selected from SEQ ID NO: 15, and a variable light chain selected from SEQ ID NO: 16.\n(§2) The experiments of this example show a set of IHC images relating to the application of the Mcl-1/Bim heterodimer antibody (HSMCB) to formalin-fixed paraffin-embedded (FFPE) specimens from MCF-7 breast cancer cells, and HCC70 triple negative breast cancer cells. […]"}, "MCL-1/BIM heterodimer": {"target": "T1, MCL-1/BIM heterodimer (Homo sapiens, UniProt Q07820)", "T1 construct": "mutated to delete their transmembrane domains; made in house; host or cells: E. coli BL21 (D3)", "T1 sequence (Q07820 1-327 limits assumed)": "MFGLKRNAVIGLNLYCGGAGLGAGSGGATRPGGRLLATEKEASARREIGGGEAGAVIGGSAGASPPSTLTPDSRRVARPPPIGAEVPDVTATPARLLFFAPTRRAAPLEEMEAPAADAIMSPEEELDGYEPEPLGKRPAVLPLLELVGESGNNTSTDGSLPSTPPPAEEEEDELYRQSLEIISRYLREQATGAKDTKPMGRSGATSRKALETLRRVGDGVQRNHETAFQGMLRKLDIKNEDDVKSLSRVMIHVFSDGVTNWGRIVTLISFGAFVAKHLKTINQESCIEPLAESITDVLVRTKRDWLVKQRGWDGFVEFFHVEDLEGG", "T1 sequence (O43521 146-166 partner limits assumed)": "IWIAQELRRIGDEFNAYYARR", "test": "ELISA: Mcl-1-GST on glutathione-coated plates with or without Bim-BH3 peptide, detected with HSMCB antibody", "assay_type": "binding", "settings": "Mcl-1-GST with or without Bim-BH3 peptide, FIG. 1", "protocol": "Genes encoding human Mcl-1 were cloned and mutated to delete their transmembrane domains. The mutated genes were then linked to a nucleotide sequence encoding Glutathione-S-transferase (GST) and cloned into pGEX 4T-1 to obtain DNA constructs for expressing Mcl-1(Δ)-GST fusion proteins. DNA constructs for expressing full length human Bim, all fused with GST, were prepared by recombinant technology.\nThe plates were then washed three times with PBS containing 0.05% TWEEN 20™ (PBST) and blocked with 50 μl PBS containing 2.0% bovine serum albumin (BSA) at room temperature for 1 hour. The plates were then washed again three times with PBST. Afterwards, 100 μl of a hybridoma supernatant was added to designated wells. The plates were incubated at room temperature for 1 hour on a shaker apparatus and then washed three times with wash buffer. Next, 50 μl of HRP-conjugated goat anti-mouse IgG Fc (Cappel Laboratories), diluted 1:1000 in assay buffer (0.5% bovine serum albumin, 0.05% % TWEEN 20™, 0.01% Thimersol in PBS), was added to each well. […] 50 μl of […] was added to each well to stop the reaction and absorbance at 450 nm in each well is read in a microliter plate reader. […]"}, "[2]": {"system": "MCF-7 breast cancer cells", "test": "IHC staining of FFPE MCF-7 cells, wild-type vs BIM siRNA", "assay_type": "cell-based, human", "settings": "BIM-siRNA transfected MCF-7 cells vs wild-type, FIG. 3", "source_text": "as §1, §2"}},
  "data": [
    {"molecule": "B1", "values": [
      {"measurement": "HSMCB IHC signal intensity", "setting": "[1]", "result": "reduced HSMCB IHC signal intensity"},
      {"measurement": "IHC activity", "setting": "[1]; Bim-siRNA transfected HCC70 cells vs WT, FIG. 4", "result": "reduced activity"},
      {"measurement": "selective binding to the MCL-1/BIM heterodimer versus monomer", "setting": "MCL-1/BIM heterodimer", "result": "preferentially react with the heterodimer and not to the monomer"},
      {"measurement": "HSMCB IHC signal intensity", "setting": "[2]", "result": "reduced HSMCB IHC signal intensity"}
    ]},
    {"molecule": "B2", "values": [
      {"measurement": "HSMCB IHC signal intensity", "setting": "[1]", "result": "reduced HSMCB IHC signal intensity"},
      {"measurement": "selective binding to the MCL-1/BIM heterodimer versus monomer", "setting": "MCL-1/BIM heterodimer", "result": "preferentially react with the heterodimer and not to the monomer"},
      {"measurement": "HSMCB IHC signal intensity", "setting": "[2]", "result": "reduced HSMCB IHC signal intensity"}
    ]}
  ]
}
